A word on the Vmax: it is the rate approached at saturating substrate. For orientation: kcat means the number of substrate molecules converted per active site and unit of time at saturation. What is called kcat/Km is the turnover number divided by the Michaelis constant.

The text below walks through data of patent US20120047600A1, “CAFFEOYL COA REDUCTASE” (priority 2010, published 2012).

Common to all, as to assay type: biochemical, M. truncatula
For one data set, the target named is Medicago CCR1 (Medicago truncatula, UniProt A0A072VDF2). Put plainly: CCR enzyme activity assay with purified recombinant Medicago CCR1 expressed in E. coli. The following applies: for CCR1 activity with substrate: qualitative, FIG. 5A,C. The text has this:
(§1) To assess the potential of Medicago CCRs to produce caffeoyl aldehyde, CCR1 and CCR2 were expressed in E. coli and assayed the purified recombinant enzymes with varying concentrations of each of the four potential substrates, 4-coumaroyl-, caffeoyl-, feruloyl- and sinapoyl-CoAs. Briefly, the coding regions of CCR1 and CCR2 were amplified from the original cDNA clones with introduction of NheI enzyme sites before the ATG start codons, a BamHI site after the CCR1 stop codon, and an XhoI site after the CCR2 stop codon. The primers EpCCR1F and EpCCR1R (see Table 3 below) were used for amplification of CCR1, and EpCCR2F and EpCCR2R were used for amplification of CCR2. The PCR products were cloned into T-vector (Promega). After confirmation by sequencing, both CCR sequences were subcloned into pET28a vector (Novagen) and the resulting constructs introduced into E. coli strain BL21 ([…]) (Novagen). The clones with correct inserts were grown at 37° C. until OD600 reached about 0.6, IPTG was added to a final concentration at 0.25 mM, and culture continued at 16° C. overnight. Induced E. coli cells were harvested by centrifugation at 5,000 g for 10 min, frozen in liquid nitrogen and stored at −80° C.
All enzyme purification steps were carried out at 4° C. […]
(§2) For CCR enzyme activity assays purified CCR protein (2.5 μg) was mixed with assay buffer (100 mM phosphate pH 6.25, 10 mM 2-mercaptoethanol, 0.2 mM NADPH and cinnamoyl CoA substrates at the indicated concentration) in a final volume of 500 μl. […] Compounds were identified by comparing their UV spectra and retention times with authentic standards of hydroxycinnamoyl aldehydes, and quantified by means of standard curves with correction for recovery of internal standards. Protein concentrations were determined using Bradford reagent (Bio-Rad). For kinetic analysis at various substrate concentrations, enzyme velocity curves were analyzed using Sigmaplot 10 software (Systat Software Inc.).

The target of another data set is Medicago CCR2 (Medicago truncatula, UniProt G7JEE5). Put plainly: CCR enzyme activity assay with purified recombinant Medicago CCR2 expressed in E. coli. The following applies: for CCR2 activity at higher substrate concentrations: substrate inhibition, FIG. 5C,D.
From the text: as §1
(§3) All enzyme purification steps were carried out at 4° C. The harvested cells were suspended in extraction buffer (100 mM Hepes-NaOH, pH 7.5, 500 mM NaCl, 10 mM imidazole, 10% glycerol, 10 mM mercaptoethanol, 1 mM EDTA, and 1 mM PMSF), sonicated three times for 20 s and centrifuged at 16,000 g for 10 min. The supernatants were mixed with Ni-NTA His-bind resin (Promega). After washing three times in extraction buffer without PMSF, the recombinant proteins were eluted with elution buffer (100 mM Hepes-NaOH, 10% glycerol, 1 mM EDTA, 10 mM mercaptoethanol, and 500 mM imidazole) and the protein stored at −80 ° C. until assay.
as §2, with “μl. The reaction was carried out at 30° C. for 5 min and then terminated with the addition of 70 μL 24% trichloroacetic acid. The reaction mixture was extracted with ethyl acetate (0.6 ml×3) and the combined organic phases dried under a stream of N2.” for “μl.”

Substrate in data set [1]: CC(C)(COP(=O)(O)OP(=O)(O)OC[C@H]1O[C@@H](n2cnc3c(N)ncnc32)[C@H](O)[C@@H]1OP(=O)(O)O)[C@@H](O)C(=O)NCCC(=O)NCCSC(=O)/C=C/c1ccc(O)c(O)c1
Described as above. The settings on record: other: CCR2; compound as substrate; S0.5 given in place of Km for coumaroyl and caffeoyl CoAs (sigmoidal velocity curves).
From the text: as §1, §3
(§4) For CCR enzyme activity assays purified CCR protein (2.5 μg) was mixed with assay buffer (100 mM phosphate pH 6.25, 10 mM 2-mercaptoethanol, 0.2 mM NADPH and cinnamoyl CoA substrates at the indicated concentration) in a final volume of 500 μl. The reaction was carried out at 30° C. for 5 min and then terminated with the addition of 70 μL 24% trichloroacetic acid. The reaction mixture was extracted with ethyl acetate (0.6 ml×3) and the combined organic phases dried under a stream of N2. The pellet was re-suspended in 50 μL methanol and 25 μL was subjected to HPLC analysis out on a Beckman System Gold HPLC system consisting of a programmable solvent module 126, a System Gold 508 autosampler and a System Gold 168 diode array detector. A Waters Spherisorb ODS-2 5 μm reverse phase column (5 μm particle, 250×4.6 mm) was used. Compounds were identified by comparing their UV spectra and retention times with authentic standards of hydroxycinnamoyl aldehydes, and quantified by means of standard curves with correction for recovery of internal standards. Protein concentrations were determined using Bradford reagent (Bio-Rad). For kinetic analysis at various substrate concentrations, enzyme velocity curves were analyzed using Sigmaplot 10 software (Systat Software Inc.).

Substrate in data set [2]: CC(C)(COP(=O)(O)OP(=O)(O)OC[C@H]1O[C@@H](n2cnc3c(N)ncnc32)[C@H](O)[C@@H]1OP(=O)(O)O)[C@@H](O)C(=O)NCCC(=O)NCCSC(=O)/C=C/c1ccc(O)cc1
Described as above. The following applies: other: CCR2; compound as substrate; S0.5 given in place of Km for coumaroyl and caffeoyl CoAs (sigmoidal velocity curves).
From the text: as §1, §3, §4

Substrate in data set [3]: COc1cc(/C=C/C(=O)SCCNC(=O)CCNC(=O)[C@H](O)C(C)(C)COP(=O)(O)OP(=O)(O)OC[C@H]2O[C@@H](n3cnc4c(N)ncnc43)[C@H](O)[C@@H]2OP(=O)(O)O)cc(OC)c1O
Described as above. The settings on record: other: CCR2; compound as substrate; S0.5 given in place of Km for coumaroyl and caffeoyl CoAs (sigmoidal velocity curves).
From the text: as §1, §3, §4

Substrate in data set [4]: COc1cc(/C=C/C(=O)SCCNC(=O)CCNC(=O)[C@H](O)C(C)(C)COP(=O)(O)OP(=O)(O)OC[C@H]2O[C@@H](n3cnc4c(N)ncnc43)[C@H](O)[C@@H]2OP(=O)(O)O)ccc1O
The data set is described as above. The settings on record: other: CCR2; compound as substrate; S0.5 given in place of Km for coumaroyl and caffeoyl CoAs (sigmoidal velocity curves).
From the text: as §1, §3, §4

Substrate in data set [5]: CC(C)(COP(=O)(O)OP(=O)(O)OC[C@H]1O[C@@H](n2cnc3c(N)ncnc32)[C@H](O)[C@@H]1OP(=O)(O)O)[C@@H](O)C(=O)NCCC(=O)NCCSC(=O)/C=C/c1ccc(O)c(O)c1
Put plainly: CCR enzyme activity assay with purified recombinant Medicago CCR1 expressed in E. coli. The following applies: other: CCR1; compound as substrate; mean of three replicate sets of assays.
From the text: as §1, §3, §4

Substrate in data set [6]: CC(C)(COP(=O)(O)OP(=O)(O)OC[C@H]1O[C@@H](n2cnc3c(N)ncnc32)[C@H](O)[C@@H]1OP(=O)(O)O)[C@@H](O)C(=O)NCCC(=O)NCCSC(=O)/C=C/c1ccc(O)cc1
The data set is described as above. The settings on record: other: CCR1; compound as substrate; mean of three replicate sets of assays.
From the text: as §1, §3, §4

Substrate in data set [7]: COc1cc(/C=C/C(=O)SCCNC(=O)CCNC(=O)[C@H](O)C(C)(C)COP(=O)(O)OP(=O)(O)OC[C@H]2O[C@@H](n3cnc4c(N)ncnc43)[C@H](O)[C@@H]2OP(=O)(O)O)cc(OC)c1O
The description is as above. The following applies: other: CCR1; compound as substrate; mean of three replicate sets of assays.
From the text: as §1, §3, §4

Substrate in data set [8]: COc1cc(/C=C/C(=O)SCCNC(=O)CCNC(=O)[C@H](O)C(C)(C)COP(=O)(O)OP(=O)(O)OC[C@H]2O[C@@H](n3cnc4c(N)ncnc43)[C@H](O)[C@@H]2OP(=O)(O)O)ccc1O
The description is as above. The following applies: other: CCR1; compound as substrate; mean of three replicate sets of assays.
From the text: as §1, §3, §4

Consider `COc1cc(/C=C/C(=O)SCCNC(=O)CCNC(=O)[C@H](O)C(C)(C)COP(=O)(O)OP(=O)(O)OC[C@H]2O[C@@H](n3cnc4c(N)ncnc43)[C@H](O)[C@@H]2OP(=O)(O)O)ccc1O` [Feruloyl CoA], for which the “CCR1 activity with substrate” value on Medicago CCR1 is “most active”. The “CCR2 activity at higher substrate concentrations” value at Medicago CCR2 is “strongly inhibited”.
As for `CC(C)(COP(=O)(O)OP(=O)(O)OC[C@H]1O[C@@H](n2cnc3c(N)ncnc32)[C@H](O)[C@@H]1OP(=O)(O)O)[C@@H](O)C(=O)NCCC(=O)NCCSC(=O)/C=C/c1ccc(O)c(O)c1` [Caffeoyl CoA], on Medicago CCR1 (at 50 μM substrate (FIG. 5A)), the “CCR1 activity relative to CCR2 activity” value is “around 7%”. For the same molecule, the “CCR1 activity with substrate” value at Medicago CCR1 was “very low activity”.
In the case of `COc1cc(/C=C/C(=O)SCCNC(=O)CCNC(=O)[C@H](O)C(C)(C)COP(=O)(O)OP(=O)(O)OC[C@H]2O[C@@H](n3cnc4c(N)ncnc43)[C@H](O)[C@@H]2OP(=O)(O)O)cc(OC)c1O` [Sinapoyl CoA], the “CCR2 activity relative to CCR1” value at Medicago CCR2 (at 20 μM substrate) is on record as “almost twice as active”. Besides, the CCR2 activity result at Medicago CCR2 (at 50 μM substrate) is listed as “virtually no activity”. Also, on Medicago CCR2, the “CCR2 activity at higher substrate concentrations” value is “strongly inhibited”.

B1: Medicago CCR2 (Medicago truncatula) (protein)
chain: MPAYDNTSSVSGGDQTVCVTGAGGFIASWLVKLLLERGYTVRGTVRNPEDPKNGHLKELEGARERLTLHKVDLLDLQSIQSVVHGCHGVFHTASPVTDNPDEMLEPAVNGTKNVIIASAEAKVRRVVFTSSIGTVYMDPNTSRDVVVDESYWSDLEHCKNTKNWYCYGKTVAEQSAWDIAKENQVDLVVVNPVVVLGPLLQPTINASTIHILKYLNGAAKTYVNATQSYVHVKDVALAHLLVYETNSASGRYICCETALHRGEVVEILAKYFPEYPLPTKCSDEKNPRVKPYKFSNQKLKDLGLEFTPVKQCLYDTVRSLQEKGHLPIPPMQEDSA
Turning to B1, the K0.5 in data set [1] is 23.4 ± 0.80 µM; in data set [2], 12.4 ± 1.0 µM; in data set [3], 32.7 ± 3.6 µM; in data set [4], 44.5 ± 4.5 µM. Also, the Vmax in data set [1] was found to be 0.35 ± 0.01 µmol/min; in [2] it was 0.44 ± 0.01 µmol/min; in data set [3], 0.32 ± 0.02 µmol/min; in data set [4] it was 0.48 ± 0.05 µmol/min. The catalytic constant (kcat) in data set [1] is 0.15 ± 0.005 s⁻¹; in data set [2] it was 0.29 ± 0.0067 s⁻¹; in data set [3], 0.2 ± 0.0183 s⁻¹; in [4], 0.302 ± 0.0333 s⁻¹. Besides, the kcat/Km amounted to 8170 ± 330 M⁻¹ s⁻¹ in [1], 15000 ± 500 M⁻¹ s⁻¹ in [2], 6170 ± 830 M⁻¹ s⁻¹ in data set [3] and 6670 ± 830 M⁻¹ s⁻¹ in data set [4].

B2: Medicago CCR1 (Medicago truncatula) (protein)
chain: MPAATAAAAAESSSVSGETICVTGAGGFIASWMVKLLLEKGYTVRGTLRNPDDPKNGHLKKLEGAKERLTLVKVDLLDLNSVKEAVNGCHGVFHTASPVTDNPEEMVEPAVNGAKNVIIAGAEAKVRRVVFTSSIGAVYMDPNRSVDVEVDESCWSDLEFCKKTKNWYCYGKAVAEAAAWDVAKEKGVDLVVVNPVLVLGPLLQPTINASTIHILKYLTGSAKTYANATQAYVHVRDVALAHILVYEKPSASGRYLCAETSLHRGELVEILAKYFPEYPIPTKCSDEKNPRVKPHIFSNKKLKDLGLEFTPVSECLYETVKSLQDQGHLSIPNKEDSLAVKS
As for B2, the K0.5 in [5] was 161 ± 6.8 µM; in data set [6] it was 56.8 ± 4.7 µM; in data set [7], 7.2 ± 0.4 µM; in data set [8], 54.5 ± 3.2 µM. The Vmax in data set [5] came out at 0.085 ± 0.0 µmol/min; in data set [6], 0.25 ± 0.01 µmol/min; in data set [7] it was 0.15 ± 0.01 µmol/min; in data set [8], 1.64 ± 0.11 µmol/min. In addition, the turnover number (kcat) in data set [5] came to 0.0517 ± 0.0012 s⁻¹; in data set [6] it was 0.15 ± 0.00167 s⁻¹; in [7] it was 0.0917 ± 0.00233 s⁻¹; in data set [8] it was 1 ± 0.0342 s⁻¹. For the same molecule, the specificity constant (kcat/Km) came to 317 ± 0 M⁻¹ s⁻¹ in data set [5], 2670 ± 1700 M⁻¹ s⁻¹ in data set [6], 11300 ± 830 M⁻¹ s⁻¹ in data set [7] and 19000 ± 1300 M⁻¹ s⁻¹ in [8].
